# Data published in the supplement of paper PMC12042874.
# ± gives the uncertainty stated by the source.
# Assay: amyloid nucleation score (Sup35N fusion, yeast selection) (log enrichment); library NNK3; higher = more nucleation; inactive = no reads after selection
# Summary of the method: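 Using DiMSum, nucleation scores were taken as the log enrichment of output over input reads, centred on the mode score of non-aggregating sequences. The input and output reads came from Illumina sequencing of plasmid inserts, with sequences under 100 input reads excluded. The yeast were psi-negative, expressed Sup35N fused to peptides of 20 random codons, were induced with 100 μM copper sulfate for 24 hours, and were grown 7 days at 30°C on medium lacking adenine and uracil.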
row,Substance,amyloid nucleation score
1,PSSLKYSKRVLSVSIHWERL,inactive
2,PSVTLQHSGIATWSILDRTL,0.316 ± 0.26
3,PTAFCNSSQYV,inactive
4,PTAKRM,inactive
5,PTGGKKVGIASTFSLSVGTV,-0.08 ± 0.27
6,PTGSFMLLET,inactive
7,PTLCNRGLACDEHSHR,inactive
8,PTRNYCLLVKDY,inactive
9,PTSFLVYRMKRWFRASMSSR,inactive
10,PTSFYPVQRPPRFCAGHFRS,inactive
11,PTTCSNFSAYWNVCDPHNIS,inactive
12,PVEPI,inactive
13,PVFQLNNFTYMRVPCLRGLN,inactive
14,PVHSMASQLPYNNNTTKCLV,inactive
15,PVLSYMRMSI,inactive
16,PVPLAMYFYVALIYFDWW,inactive
17,PVQACRCKSH,inactive
18,PVVTVHAWHRFNMHL,inactive
19,PVYERPRCQNFLGCYWSCAQ,inactive
20,PWCLNWVITDDCRFYCGLRV,inactive
21,PWGPW,inactive

row,Substance,amyloid nucleation score
1,PWIGVNINSSVLVMVFGGGM,1.97 ± 0.079
2,PWMHLYRHAMFISAHLRYSC,inactive
3,PWRLIAALACVYTWPLGLRG,inactive
4,PYAPVWKRGRNYFTNSFLYM,inactive
5,PYFTDAFVNEMDMQCH,inactive
6,QANFYPN,inactive
7,QARKDDDKAQNKCSR,inactive
8,QAYAS,-0.099 ± 0.96
9,QCEAGSGIIAVLHY,inactive
10,QDLMRTEHFNYS,inactive
11,QDNVKVVGAVGFYDILNGVE,inactive
12,QEIRTVTGALTDTWIVFICR,inactive
13,QFCSI,inactive
14,QFFCFNRLWDWVTFRVIDMS,inactive
15,QFGSWD,inactive
16,QFKLHCYRGMVVNHSLMCDT,inactive
17,QFMNKIIMCLGSF,-0.263 ± 0.58
18,QFPSFANIIANCPLGFLWYA,inactive
19,QFYGLHMAFGKQVNALYTGH,inactive
20,QGISQPRHCFY,inactive
21,QGKCDSELRAAAMDI,inactive

row,Substance,amyloid nucleation score
1,QGLSCDFRVLLLIYRSCGRG,inactive
2,QGSLVKFS,inactive
3,QGSMLRHY,inactive
4,QGYLRKYPVTGICVIYECDG,inactive
5,QHKKKIAF,inactive
6,QHNSK,inactive
7,QHWWSYWMFSGKRQCVVFPV,inactive
8,QIFLCTGFCR,2.69 ± 0.062
9,QILGTQAGYYCSREGFANL,inactive
10,QILLFSFRVLFAGYRKIAST,inactive
11,QIPSGVVCGMNGYCLGAVTR,inactive
12,QIVRYASSQCDCRNFLSTVE,inactive
13,QKHNSIFMLAVCCYKSCKQ,1.07 ± 0.084
14,QLCFGVMLRCSCCGKQVWEK,1.84 ± 0.1
15,QLCLCRKATLMSPTRLLQRA,-0.41 ± 1.9
16,QLHRENEVVRYVF,inactive
17,QLKSVRACGRRGPLSQ,inactive
18,QLLVF,-1.23 ± 1.9
19,QLRASA,inactive
20,QLVFYHVDLHILPFWSAI,2.15 ± 0.081
21,QLWNWVFYYISNILGKGMHL,inactive

row,Substance,amyloid nucleation score
1,QMRTWSKIYICTKPFL,1.07 ± 0.1
2,QPVTRLFFISGSRGDLVEKH,inactive
3,QRAMYCKSLMSF,inactive
4,QRDHMGFSGDLW,inactive
5,QRFPKCI,inactive
6,QRFYILPRQCNALKGIITSL,inactive
7,QRLVINDMMPLFFWHSNMGD,inactive
8,QRVSFCIEVIGFQ,-0.042 ± 0.98
9,QRYTFIIIGTGWTGYYRHTP,-0.156 ± 0.41
10,QSEALNNFWVGSILSYMVLG,inactive
11,QSKFFGQWFLRQND,0.299 ± 0.21
12,QSKSYFTL,inactive
13,QSPRRRMQSDIWS,inactive
14,QSSCGIMQPYRQWMPYSTYG,inactive
15,QSSKDTWRCASDKYERSGKR,inactive
16,QSSLLSTVNGVFKSDTRVRV,inactive
17,QSTGCLYSYLLANVGKSSGK,inactive
18,QSYVFVVLTPWVSRCGIGLA,inactive
